# Measurements reported in publication PMC10945824 (Proceedings of the National Academy of Sciences of the …, 2024).
# Where two headings read alike, the source gives them in different places.
# How the values were obtained:
# [1] = biological target: the molecule itself; assay: cryo-EM structure
# [2] = biological target: the molecule itself; assay: negative-stain TEM
# [3] = biological target: the molecule itself; assay: negative-stain TEM; remark: listed apart in the source
Protein,stoichiometry N [1],binding result [2],binding result [3]
"human paraneoplastic antigen Ma2 (PNMA2), recombinant, wild type (natural protein, UniProt Q9UL42 1-364, looked up) MALALLEDWCRIMSVDEQKSLMVTGIPADFEEAEIQEVLQETLKSLGRYRLLGKIFRKQENANAVLLELLEDTDVSAIPSEVQGKGGVWKVIFKTPNQDTEFLERLNLFLEKEGQTVSGMFRALGQEGVSPATVPCISPELLAHLLGQAMAHAPQPLLPMRYRKLRVFSGSAVPAPEEESFEVWLEQATEIVKEWPVTEAEKKRWLAESLRGPALDLMHIVQADNPSISVEECLEAFKQVFGSLESRRTAQVRYLKTYQEEGEKVSAYVLRLETLLRRAVEKRAIPRRIADQVRLEQVMAGATLNQMLWCRLRELKDQGPPPSFLELMKVIREEEEEEASFENESIEEPEERDGYGRWNHEGDD",60,binds,–
"HA-tagged human PNMA2 secreted by HEK293FT cells (natural protein, UniProt Q9UL42 1-364, looked up) MALALLEDWCRIMSVDEQKSLMVTGIPADFEEAEIQEVLQETLKSLGRYRLLGKIFRKQENANAVLLELLEDTDVSAIPSEVQGKGGVWKVIFKTPNQDTEFLERLNLFLEKEGQTVSGMFRALGQEGVSPATVPCISPELLAHLLGQAMAHAPQPLLPMRYRKLRVFSGSAVPAPEEESFEVWLEQATEIVKEWPVTEAEKKRWLAESLRGPALDLMHIVQADNPSISVEECLEAFKQVFGSLESRRTAQVRYLKTYQEEGEKVSAYVLRLETLLRRAVEKRAIPRRIADQVRLEQVMAGATLNQMLWCRLRELKDQGPPPSFLELMKVIREEEEEEASFENESIEEPEERDGYGRWNHEGDD",–,–,binds
